Biological target: Dr hemagglutinin (DraE) adhesin, Dr fimbriae (E. coli)
Assay: SPR

Row | Substance | Kd [µM]
1 | N-domain of CEA (domain or fragment) | 13.1

Biological target: Dr hemagglutinin (DraE) adhesin, Dr fimbriae (E. coli)
Assay: SPR
Remark: another data set of the same source

Row | Substance | Kd [µM]
2 | CEA-CEACAM8 chimera (from UniProt P06731 35-92) (domain or fragment) | 14.4
3 | N-CEA D40A (domain or fragment) | 48.9
4 | N-CEA F9A (domain or fragment) | 18.4
5 | N-CEA F29R (domain or fragment) | > 200
6 | N-CEA G51D (domain or fragment) | 12
7 | N-CEA L28P (domain or fragment) | 6.6
8 | N-CEA Q44R (domain or fragment) | > 200
9 | N-CEA S32N (domain or fragment) | 12.8
10 | N-CEA T52N (domain or fragment) | 11
11 | N-CEA V11A (domain or fragment) | 24.9
12 | N-CEA V39A (domain or fragment) | 9.35
13 | N-domain of CEA (domain or fragment) | 13.1
14 | N-domain of CEACAM1 (domain or fragment) | 15.3
